# Measured values: the supplement of paper PMC9233669
# This sample holds only a part of the variants without activity.
# Columns and labels:
# biotinyl-Ile-oxazolone = assay: self-aminoacylation, catalytic enhancement (BIO) (fold over background); higher = more active; k-Seq, kA / k0A0; sequences stand for … in GGGAAUGGAUCCACAUCUACGAAUUC…UUCACUGCAGACUUGACGAAGCUG
# How it was run: (§1)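 The uncatalyzed rate is the low-activity peak of a bimodal Gaussian fit, and catalytic enhancement is median kA divided by it. The kA values came from pseudo-first-order fits, with 1000 bootstraps, of per-sequence fraction reacted measured by streptavidin capture, triplicate qPCR and Illumina sequencing. Mutagenized RNA pools with a 21-nt variable region (0.43 μM) were reacted with each biotinyl-aminoacyl-oxazolone at 2–1250 μM in 50 μL HEPES/NaCl/KCl/MgCl2/CaCl2 buffer with 5% acetonitrile, pH 6.9–7.0, for 90 minutes at room temperature.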
# biotinyl-Leu-oxazolone = assay: self-aminoacylation, catalytic enhancement (BLO) (fold over background); higher = more active; k-Seq, kA / k0A0; sequences stand for … in GGGAAUGGAUCCACAUCUACGAAUUC…UUCACUGCAGACUUGACGAAGCUG
# How it was run: as §1
# biotinyl-Met-oxazolone = assay: self-aminoacylation, catalytic enhancement (BMO) (fold over background); higher = more active; k-Seq, kA / k0A0; sequences stand for … in GGGAAUGGAUCCACAUCUACGAAUUC…UUCACUGCAGACUUGACGAAGCUG
# How it was run: as §1
# biotinyl-Phe-oxazolone = assay: self-aminoacylation, catalytic enhancement (BFO) (fold over background); higher = more active; k-Seq, kA / k0A0; sequences stand for … in GGGAAUGGAUCCACAUCUACGAAUUC…UUCACUGCAGACUUGACGAAGCUG
# How it was run: as §1
# biotinyl-Val-oxazolone = assay: self-aminoacylation, catalytic enhancement (BVO) (fold over background); higher = more active; k-Seq, kA / k0A0; sequences stand for … in GGGAAUGGAUCCACAUCUACGAAUUC…UUCACUGCAGACUUGACGAAGCUG
# How it was run: as §1
# biotinyl-Trp-oxazolone = assay: self-aminoacylation, catalytic enhancement (BWO) (fold over background); higher = more active; k-Seq, kA / k0A0; sequences stand for … in GGGAAUGGAUCCACAUCUACGAAUUC…UUCACUGCAGACUUGACGAAGCUG
# How it was run: as §1
Sequence,self-aminoacylation (biotinyl-Ile-oxazolone),self-aminoacylation (biotinyl-Leu-oxazolone),self-aminoacylation (biotinyl-Met-oxazolone),self-aminoacylation (biotinyl-Phe-oxazolone),self-aminoacylation (biotinyl-Val-oxazolone),self-aminoacylation (biotinyl-Trp-oxazolone)
CCACACUUCAAGCAAUGGGUA [Fam1B.1 aminoacylation ribozyme variant],1.35,1.31,1.39,0.907,1.4,1.35
CCACACUUCAUGCCAUCGGUC [Fam1B.1 aminoacylation ribozyme variant],0.957,0.921,0.691,0.488,1.1,1.59
CUACUUCAAUCAAUCCGUCUG [Fam1A.1 aminoacylation ribozyme variant],0.758,0.694,0.664,0.657,0.672,0.695
AGUCACCUAGGUCAUCGGGGG [Fam2.2 aminoacylation ribozyme variant],3.13,3.14,3.3,17.5,2.9,3.68
AAGUUGGCUAAUAGUCGCAUG [Fam3.1 aminoacylation ribozyme variant],1.77,2.19,1.88,1.69,1.51,2
CCACACUUCAGGCAAUCAGUC [Fam1B.1 aminoacylation ribozyme variant],0.658,0.636,0.724,0.955,1.05,0.796
AAGUUUGCUAGUAGUCGCAAU [Fam3.1 aminoacylation ribozyme variant],1.01,0.95,0.922,1.2,1.08,0.724
CUACGUUAAACAAUCGGUCUG [Fam1A.1 aminoacylation ribozyme variant],1.19,1.17,1.16,0.927,1.19,1.05
CUUCACCUAGGUGAUCGGGUG [Fam2.2 aminoacylation ribozyme variant],3.56,4.03,3.91,20.6,3.9,4.93
CUACUUCACACAAACGGUCUG [Fam1A.1 aminoacylation ribozyme variant],0.771,0.746,0.626,1.07,0.746,0.616
AAUUUUGCUACUAGUCGCAAG [Fam3.1 aminoacylation ribozyme variant],1.87,1.54,1.53,2.25,1.74,2.5
AUUACCCUGUUCAUCGAAUGA [Fam2.1 aminoacylation ribozyme variant],0.982,0.871,1.16,1.18,1.13,0.767
AUUCACGUAGGUCAUCGGUUG [Fam2.2 aminoacylation ribozyme variant],1.2,1.35,1.23,4.98,1.24,0.72
CUGCUUCAAACUAUCGGUCUG [Fam1A.1 aminoacylation ribozyme variant],0.856,0.976,0.752,1.35,1.07,0.937
AUUCUCCGAGGUCAUCGGGUG [Fam2.2 aminoacylation ribozyme variant],9.69,22,16.7,141,10.6,14.7
AAGAUUGCUAUUAGUCGCAAG [Fam3.1 aminoacylation ribozyme variant],1.73,1.62,1.55,1.79,1.6,1.87
AUUACCCUUGUCAUGGAGUGA [Fam2.1 aminoacylation ribozyme variant],2.87,5.03,4.62,22.1,2.76,5.67
AUUACCCGGGUCAUCGACUGA [Fam2.1 aminoacylation ribozyme variant],0.845,0.675,0.768,0.62,0.837,0.755
AAGUUUGCUCAUAGCCGCAAG [Fam3.1 aminoacylation ribozyme variant],0.88,0.719,0.891,1.35,0.895,0.78
GCACACUUCAAGCAAUUGGUC [Fam1B.1 aminoacylation ribozyme variant],1.47,1.3,1.45,2.06,1.22,1.94
CCUACCCUGGUCAUCGAGUGA [Fam2.1 aminoacylation ribozyme variant],3.88,7.58,6.64,49.8,4.14,9.17
AUUCUCGUAGGUCAUCGGGUG [Fam2.2 aminoacylation ribozyme variant],6.47,12.2,11.3,77.6,7.51,9.21
CUACUUCCAACAAUCGGUUUG [Fam1A.1 aminoacylation ribozyme variant],0.747,0.645,0.713,0.87,0.76,0.678
AUUACCCUGGUCAGCUAGUGA [Fam2.1 aminoacylation ribozyme variant],2.53,3.32,3.32,6.76,2.34,3.12
CUCCUUGAAACAAUCGGUCUG [Fam1A.1 aminoacylation ribozyme variant],1.1,1.18,1.31,1.25,1.19,1.73
CGACACUUCAAGCAAGCGGUC [Fam1B.1 aminoacylation ribozyme variant],1.09,1.23,1.27,0.837,0.939,1.21

Sequence,self-aminoacylation (biotinyl-Ile-oxazolone),self-aminoacylation (biotinyl-Leu-oxazolone),self-aminoacylation (biotinyl-Met-oxazolone),self-aminoacylation (biotinyl-Phe-oxazolone),self-aminoacylation (biotinyl-Val-oxazolone),self-aminoacylation (biotinyl-Trp-oxazolone)
AAGUUUGGUUAUAGUCGCAAG [Fam3.1 aminoacylation ribozyme variant],1.7,1.38,1.23,2.69,1.39,1.46
AUUACCCGGGUGAUCGAGUGA [Fam2.1 aminoacylation ribozyme variant],3.2,7.76,7.21,46.1,4.2,8.54
CCACACCUAAAGCAAUCGGUC [Fam1B.1 aminoacylation ribozyme variant],1,1.02,0.876,1.09,1.31,1.01
CUACUACAAUCAAUCGGUCUG [Fam1A.1 aminoacylation ribozyme variant],0.767,0.699,0.616,0.981,0.682,0.669
UUUACCCUGGUCCUCGAGUGA [Fam2.1 aminoacylation ribozyme variant],1.96,3.67,4.26,17.8,2.58,4.06
UUUCACCCAGGUCAUCGGGUG [Fam2.2 aminoacylation ribozyme variant],3.32,4.54,4.86,35.1,4.69,5.64
AUUAUCAUGGUCAUCGAGUGA [Fam2.1 aminoacylation ribozyme variant],3.56,6.75,6.24,10.8,3.44,8.2
AUUACCCUGGUCAUCGAGUGU [Fam2.1 aminoacylation ribozyme variant],31.7,105,108,785,37.4,104
AAUACCCUGGUCAUGGAGUGA [Fam2.1 aminoacylation ribozyme variant],2.21,3.47,2.43,1.9,1.86,3.45
AAGUUUACUAAUAGUCGCCAG [Fam3.1 aminoacylation ribozyme variant],1.42,1.24,1.23,1.61,1.21,1.31
AUUCACCUAGGUCAUCCGUUG [Fam2.2 aminoacylation ribozyme variant],1.31,1.16,0.997,4.37,1.19,0.699
AUUCACCUAGGUCAACCGGUG [Fam2.2 aminoacylation ribozyme variant],2.99,6.28,4.9,26.6,2.72,4.14
AAGUUUGCUAAUAGACUCAAG [Fam3.1 aminoacylation ribozyme variant],0.416,0.313,0.332,0.758,0.427,0.449
AUGUUUGCUAAUAGUAGCAAG [Fam3.1 aminoacylation ribozyme variant],1.29,0.912,1.34,1.67,1.36,0.911
AUUACCCUGGUGAUCGAGUAA [Fam2.1 aminoacylation ribozyme variant],1.24,1.21,1.54,0.541,1.23,2.15
ACGUUUGCUACUAGUCGCAAG [Fam3.1 aminoacylation ribozyme variant],1.76,1.7,2.16,2.4,1.47,1.31
CCACACUUUUAGCAAUCGGUC [Fam1B.1 aminoacylation ribozyme variant],0.874,0.845,0.767,0.974,0.942,0.678
AAGUAUGCAAAUAGUCGCAAG [Fam3.1 aminoacylation ribozyme variant],1.17,1.02,1.06,1.55,1.05,1.76
CUCCUUCAAACAAUCGAUCUG [Fam1A.1 aminoacylation ribozyme variant],0.586,0.589,0.571,2.82,0.705,1.2
AAGAUUGCUAAUAGUGGCAAG [Fam3.1 aminoacylation ribozyme variant],0.786,0.906,0.871,0.997,0.702,0.941
AUACACCUAGGUCCUCGGGUG [Fam2.2 aminoacylation ribozyme variant],3.44,3.48,2.71,21.8,3.57,3.71
AUUCACCUAAGUCAUCGCGUG [Fam2.2 aminoacylation ribozyme variant],6.77,17.7,13.4,110,7.56,15.7
AUUCACUUAGGUCACCGGGUG [Fam2.2 aminoacylation ribozyme variant],3.47,5.15,4.86,28.2,3.33,5.19
AAAUUUGCUGAUAGUCGCAAG [Fam3.1 aminoacylation ribozyme variant],1.73,1.86,1.97,2.14,1.69,2.23
AUUACCCUGGUCAUCGCGUAA [Fam2.1 aminoacylation ribozyme variant],2.73,2.97,4.04,28.4,3.48,5.11
